This passage reports Kd results from the Immune Epitope Database (IEDB).

Targets include HLA-A*03:01; HLA-A*11:01; HLA-A*31:01; HLA-A*33:01; HLA-A*68:01.
Holding throughout (experiment): IEDB peptide-MHC binding, purified MHC/competitive/radioactivity; filed as Kd, often an IC50 or EC50 that approximates it; ≥ and ≤ were set here for values at or beyond the usual limits of such assays
Setting [1] is: source organism: SARS coronavirus Tor2.
The mark [2] stands for this setting: source organism: Vaccinia virus WR.
Setting [3] is: source organism: Dengue virus 2 Jamaica/1409/1983.
The mark [4] stands for this setting: source organism: Dengue virus 1 Brazil/97-11/1997.
The mark [5] stands for this setting: source organism: Dengue virus 3 Martinique/1243/1999.
Where [6] appears, read: source organism: Dengue virus 1 Singapore/S275/1990.
The mark [7] stands for this setting: source organism: Mammarenavirus machupoense.
Setting [8] is: source organism: Dengue virus 4 Philippines/H241/1956.
Where [9] appears, read: source organism: Lymphocytic choriomeningitis virus (strain Armstrong).

In general, Kd refers to the equilibrium constant for the complex coming apart. In the case of AAAYFVGYLK, the Kd in the assay with HLA-A*03:01 (setting [1]) was 9.39 nM; with HLA-A*11:01 (setting [1]), 0.439 nM; with HLA-A*31:01 (setting [1]) it was 282 nM; in the assay with HLA-A*33:01 (setting [1]), 5610 nM; with HLA-A*68:01 (setting [1]), 1.08 nM. On to AAKYVEHDPR, for which the Kd with HLA-A*03:01 (setting [2]) is no less than 31000 nM; with HLA-A*11:01 (setting [2]), no less than 39000 nM; in the assay with HLA-A*31:01 (setting [2]), 171 nM; with HLA-A*33:01 (setting [2]), 1480 nM; in the assay with HLA-A*68:01 (setting [2]) it was 251 nM. Regarding AARGYISTR, the dissociation constant (Kd) with HLA-A*31:01 (setting [3]) is 11.1 nM; with HLA-A*33:01 (setting [3]), 315 nM. Consider AGLAFSLMK, for which the equilibrium dissociation constant (Kd) in the assay with HLA-A*11:01 (setting [4]) stood at 11.2 nM. As to AIDAYPLTK, the Kd was 11.6 nM with HLA-A*11:01 (setting [1]), 8890 nM with HLA-A*31:01 (setting [1]), no less than 44600 nM with HLA-A*33:01 (setting [1]) and 6970 nM with HLA-A*68:01 (setting [1]). For the sequence AIGTSITQK, the dissociation constant (Kd) with HLA-A*03:01 (setting [4]) came to 9.33 nM; with HLA-A*11:01 (setting [4]), 60.9 nM. With ALTALNDMGK, the results for the dissociation constant Kd with HLA-A*03:01 (setting [3]) and with HLA-A*11:01 (setting [3]) were 1290 nM and 1370 nM, respectively. For AQGLVASIK, the equilibrium dissociation constant (Kd) is 654 nM with HLA-A*03:01 (setting [1]); 209 nM in the assay with HLA-A*11:01 (setting [1]); 9890 nM in the assay with HLA-A*31:01 (setting [1]); no less than 31600 nM with HLA-A*33:01 (setting [1]); no less than 32600 nM with HLA-A*68:01 (setting [1]). For ATKSEHTGR, in the assay with HLA-A*31:01 (setting [5]), the Kd turned out to be 1.85 nM. As to ATMLDVDLR, the dissociation constant (Kd) with HLA-A*11:01 (setting [6]) stood at 41.5 nM. As to ATRLENIMWK, the dissociation constant (Kd) with HLA-A*03:01 (setting [4]) came to 42.3 nM; in the assay with HLA-A*11:01 (setting [4]), 6.34 nM. Regarding ATSRTLSYYK, the Kd with HLA-A*03:01 (setting [1]) was determined as 3.32 nM; with HLA-A*11:01 (setting [1]) it was 3.16 nM; with HLA-A*31:01 (setting [1]), 14.9 nM; with HLA-A*33:01 (setting [1]), 6230 nM; with HLA-A*68:01 (setting [1]), 15.3 nM. Turning to CQFDHVNTLH, the Kd with HLA-A*03:01 (setting [7]) turned out to be 18400 nM; with HLA-A*11:01 (setting [7]), 8740 nM; with HLA-A*31:01 (setting [7]) it was 1930 nM; with HLA-A*68:01 (setting [7]), 9280 nM. For DVFFIPPEK, the equilibrium dissociation constant (Kd) in the assay with HLA-A*68:01 (source organism: Dengue virus 2 16681-PDK53) stood at 3.62 nM.

For the sequence EFGKAKGSR, the Kd with HLA-A*33:01 (setting [5]) turned out to be 125 nM. As to EFKEFAAGR, in the assay with HLA-A*68:01 (setting [3]), the Kd worked out at 594 nM. Regarding EVTNPAVLR, the Kd in the assay with HLA-A*33:01 (setting [4]) amounted to 91.7 nM; with HLA-A*68:01 (setting [4]) it was 40 nM. As to FLMSGKGIGK, the Kd with HLA-A*03:01 (setting [3]) was 42.6 nM; with HLA-A*11:01 (setting [3]) it was 99.8 nM.

With GMLQGRGPLK, the Kd with HLA-A*03:01 (setting [3]) is 6.17 nM; with HLA-A*11:01 (setting [3]) it was 37.9 nM.

With GVTLFFLSGK, the Kd in the assay with HLA-A*03:01 (setting [4]) came to 13.1 nM; with HLA-A*11:01 (setting [4]) it was 23.8 nM. For HMIVGRQEK, in the assay with HLA-A*03:01 (setting [3]), the dissociation constant (Kd) came out at 66.6 nM. Regarding ILARWGSFK, the dissociation constant (Kd) with HLA-A*03:01 (setting [6]) was determined as 2.13 nM; with HLA-A*11:01 (setting [6]), 77.8 nM.

For the sequence IMKSVGTGK, the equilibrium dissociation constant (Kd) in the assay with HLA-A*03:01 (setting [5]) stood at 4.95 nM. For INMLKRVRNR, the dissociation constant (Kd) with HLA-A*31:01 (setting [5]) stood at 1570 nM. ITANPIVTDK: the Kd in the assay with HLA-A*11:01 (setting [4]) stood at 83 nM; in the assay with HLA-A*68:01 (setting [4]) it was 40.5 nM. As to KILDAVVAQE, in the assay with HLA-A*03:01 (source organism: Homo sapiens), the Kd came to 847 nM. For KLRPKWLDAR, the Kd in the assay with HLA-A*31:01 (setting [8]) worked out at 2.11 nM.

For the sequence KVVQHENLK, the Kd with HLA-A*03:01 (source organism: Dengue virus 3 Singapore/8120/1995) came out at 49 nM. Regarding KWLKECGVDR, the Kd with HLA-A*31:01 (setting [8]) worked out at 364 nM. Turning to LGMMVLKIVR, the Kd with HLA-A*33:01 (setting [3]) is 1910 nM. In the case of LIGANYLGK, the equilibrium dissociation constant (Kd) was 8930 nM with HLA-A*31:01 (setting [1]), no less than 77700 nM with HLA-A*33:01 (setting [1]) and 10900 nM with HLA-A*68:01 (setting [1]). For the sequence LLVWHTWQK, in the assay with HLA-A*03:01 (setting [5]), the dissociation constant (Kd) amounted to 59 nM. As to LSSRATWAK, the Kd with HLA-A*11:01 (setting [8]) came out at 56.5 nM. Consider MFEATARGAR, for which, in the assay with HLA-A*33:01 (setting [4]), the Kd was 22.3 nM. Turning to MVLLIPEPEK, in the assay with HLA-A*11:01 (setting [5]), the Kd turned out to be 115 nM. Regarding NMLKRVRNR, in the assay with HLA-A*33:01 (setting [5]), the Kd worked out at 109 nM. NMLSIINKR: the Kd with HLA-A*31:01 (setting [5]) is 42.1 nM; with HLA-A*33:01 (setting [5]), 23 nM.

On to NVTEVKGYTK, for which the Kd in the assay with HLA-A*68:01 (setting [8]) worked out at 40.6 nM. On to QVAINQVRR, for which, in the assay with HLA-A*68:01 (setting [4]), the Kd came to 104 nM. As to RAGRVIDPR, the Kd with HLA-A*31:01 (setting [8]) is 29.1 nM. For RLCTREEFTK, the dissociation constant Kd with HLA-A*03:01 (setting [5]) is 76.6 nM. TAIFLTTLSR: the Kd is 298 nM in the assay with HLA-A*11:01 (setting [3]) and 2.83 nM with HLA-A*68:01 (setting [3]).

With TFTNDSIISH, the Kd with HLA-A*03:01 (setting [9]) was no less than 47000 nM; with HLA-A*31:01 (setting [9]), no less than 64700 nM; in the assay with HLA-A*33:01 (setting [9]), 8720 nM; with HLA-A*68:01 (setting [9]), 6850 nM. On to TTETPTWNR, for which the dissociation constant (Kd) came out at 1.28 nM with HLA-A*33:01 (setting [5]) and 14.5 nM with HLA-A*68:01 (setting [5]). Consider VFKEKVDTR, for which the dissociation constant (Kd) with HLA-A*33:01 (setting [5]) stood at 63.1 nM. As to VTLFFLSGK, the Kd with HLA-A*03:01 (setting [4]) came out at 3.82 nM; with HLA-A*11:01 (setting [4]), 12.4 nM.

As for YMIGQTGIQR, the values for the Kd with HLA-A*33:01 (setting [8]) and in the assay with HLA-A*68:01 (setting [8]) were 79.2 nM and 98.3 nM, respectively. For YMTSMKRFK, in the assay with HLA-A*03:01 (setting [4]), the Kd was 897 nM.

Consider YMWQVKTQR, for which the Kd with HLA-A*31:01 (setting [8]) worked out at 1.41 nM; with HLA-A*33:01 (setting [8]) it was 1.3 nM.
